From patent US20170275666A1, “Methods for Preparing Rebaudioside I and Uses” (The Coca-Cola Company, priority 2014, published 2017)
Positions count from the first letter of the chain named.

B1: UGT76G1: UDP-glycosyltransferase from Stevia rebaudiana (Genbank AAR06912.1), in-vivo produced lysate (protein, UniProt Q6VAB4 1-458, looked up)
UDP-glycosyltransferase 76G1: MENKTETTVRRRRRIILFPVPFQGHINPILQLANVLYSKGFSITIFHTNFNKPKTSNYPHFTFRFILDNDPQDERISNLPTHGPLAGMRIPIINEHGADELRRELELLMLASEEDEEVSCLITDALWYFAQSVADSLNLRRLVLMTSSLFNFHAHVSLPQFDELGYLDPDDKTRLEEQASGFPMLKVKDIKSAYSNWQILKEILGKMIKQTKASSGVIWNSFKELEESELETVIREIPAPSFLIPLPKHLTASSSSLLDHDRTVFQWLDQQPPSSVLYVSFGSTSEVDEKDFLEIARGLVDSKQSFLWVVRPGFVKGSTWVEPLPDGFLGERGRIVKWVPQQEVLAHGAIGAFWTHSGWNSTLESVCEGVPMIFSDFGLDQPLNARYMSDVLKVGVYLENGWERGEIANAIRRVMVDEEGEYIRQNARVLKQKADVSLMKGGSSYESLESLVSYISSL
modifications: cell lysate
notes: UDP-glycosyltransferase from Stevia rebaudiana (Genbank AAR06912.1), in-vivo produced lysate
B2: UGT76G1var94: UGT76G1 variant, mutations Q266E_P272A_R334K_G348P_L379G; most active round 1 clone (protein, UniProt Q6VAB4 1-458, looked up, variant Q266E P272A R334K G348P L379G)
UDP-glycosyltransferase 76G1: B1 UDP-glycosyltransferase 76G1 with Q266E, P272A, R334K, G348P, L379G

Assays:
Assay type in all cases: biochemical
[1] = Catalytic reaction with in-vivo produced UGT76G1, stevioside to rebaudioside A; settings: 0.5 mM Stevioside, 2.5 mM UDP-glucose, thawed lysate, 30° C., HPLC (CAD)
Protocol: The total volume of the reaction was 5.0 mL with the following composition: 50 mM sodium phosphate buffer pH 7.2, 3 mM MgCl2, 2.5 mM UDP-glucose, 0.5 mM Stevioside and 500 μL of UGT76G1 thawed lysate. The reactions were run at 30° C. on an orbitary shaker at 135 rpm. For each sample, 460 μL of the reaction mixture was quenched with 40 μL of 2N H2SO4 and 420 μL of methanol/water (6/4). The samples were immediately centrifuged and kept at 10° C. before analysis by HPLC (CAD).

[2] = Directed evolution of UGT76G1, conversion of Rebaudioside D to Rebaudioside M (round 1); settings: 0.5 mM Rebaudioside D, 2.5 mM UDP-Glucose, 100 μL fresh lysate, 30° C., pH 7.2
How it was run: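 UGT76G1 variants carrying 3-5 designed mutations were expressed in E. coli BL21(DE3) (pET30a+, 44 h at 20° C) and lysed. Lysate was reacted with 0.5 mM Reb D, 2.5 mM UDP-glucose, 3 mM MgCl2 in 50 mM phosphate pH 7.2 at 30° C; HPLC-CAD sampling at 2, 4, 7, 24 h gave conversion and initial rate.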

[3] = Directed evolution of UGT76G1, conversion of Rebaudioside D to Rebaudioside M (Round 2), normalized to Round1-Var94; settings: round 2 clones; baseline clone Round1-Var94 defined as 100%; lysate, Rebaudioside D 0.5 mM, UDP-Glucose 2.5 mM, 30° C., pH 7.2, HPLC
Source text: A list of 53 mutations was established containing different identified positive mutations from the first round and new mutations obtained by DNA2.0 ProteinGPS™ strategy. This list of mutations was subsequently used to design 92 variant genes that contained each 3 different mutations. After codon-optimized for expression in E. coli the genes were synthesized, subcloned in the pET30a+ plasmid and used for transformation of E. coli BL21 (DE3) chemically competent cells. The obtained cells were grown in Petri-dishes on solid LB medium in the presence of Kanamycin. Suitable colonies were selected and allowed to grow in liquid LB medium in tubes. Glycerol was added to the suspension as cryoprotectant and 400 μL aliquots were stored at −20° C. and at −80° C.
These storage aliquots of E. coli BL21(DE3) containing the pET30a+_UGT76G1var plasmids were thawed and added to LBGKP medium (20 g/L Luria Broth Lennox; 50 mM PIPES buffer pH 7.00; 50 mM Phosphate buffer pH 7.00; 2.5 g/L glucose and 50 mg/L of Kanamycine). This culture was allowed to shake in a 96 microtiter plate at 30° C. for 8 h.
3.95 mL of production medium containing 60 g/L of Overnight Express™ Instant TB medium (Novagen®), 10 g/L of glycerol and 50 mg/L of Kanamycin was inoculated with 50 μL of above described culture. In a 48 deepwell plate the resulting culture was allowed to stir at 20° C. […]

Molecule | conversion of stevioside to rebaudioside A [1] | Conversion Reb D to Reb M after 24 h (%) [2] | initial rate (Reb M area/min) [2] | Normalized conversion Reb D to Reb M after 22 h. [3] | Normalized initial rate (0-4 h) [3]
B1 | almost complete conversion |  |  |  | 
B2 |  | 72.0% | 7.9E+07 Reb M area/min | 100% | 100%
